# pKd: −log10 of the molar value. “And” between values parts separate entries of the source, which are not always exact repeats. Equal values may be shown once. Read-outs that look alike come from different tables or passages of the source.
# What was measured:
# [1] = target: rabbit muscle G-actin (actin monomers; ATP-G-actin or ADP-G-actin) (rabbit) (UniProt P68135); test: shift of the apparent critical concentration of pyrene-actin
# [2] = target: rabbit muscle G-actin (actin monomers; ATP-G-actin or ADP-G-actin) (rabbit) (UniProt P68135); test: as above; remark: listed apart in the source
pKd [1],pKd [2],Substance
6.08,,"MBP-CAS-2 (full-length CAS-2, cyclase-associated protein-2, fused to maltose-binding protein) (natural protein)"
5.54 and 6.08,,"MBP-CAS-2N (N-terminal half of CAS-2, residues 1-207, fused to maltose-binding protein) (domain or fragment)"
5.77 and 5.92,5.44 and 5.54,"MBP-CAS-2CΔWH2 (C-terminal half of CAS-2 lacking WH2, residues 275-457, fused to maltose-binding protein) (domain or fragment)"
5.77 and 5.54,6.00 and 6.02,"MBP-CAS-2C (C-terminal half of CAS-2, residues 208-457, fused to maltose-binding protein) (domain or fragment)"

# — article PMC4086254
